According to patent publication US9493781B2, “Synthetic brassica-derived chloroplast transit peptides” (DOW AGROSCIENCES LLC, priority 2012, dated 2016):

Assays:
Arabidopsis [1] = test: dgt-28, dgt-32, dgt-33, dgt-3, dgt-7 transformed Arabidopsis (T1, T2, T3) response to postemergence glyphosate, % visual injury; type: in vivo, Arabidopsis thaliana; details: 14 days after application
Procedure, shortened: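 Transgenic T1, T2 and T3 Arabidopsis (low-copy events for T2/T3, hemizygous and homozygous in T2) sprayed postemergence with glyphosate at 105, 420, 1,680 or 3,360 g ae/ha. Visual injury scored 2 weeks after treatment as mean, SD and range. Non-transformed Columbia served as sensitive control.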

Arabidopsis [2] = test: Heritability progeny test of T1 families (T2 plants) with glufosinate, Arabidopsis; type: in vivo, Arabidopsis thaliana; details: progeny test of 100 T2 plants, glufosinate 200 g ae/ha
Procedure, shortened: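 Self-pollinated T1 Arabidopsis events gave T2 seed; 100 random T2 siblings were sprayed with glufosinate at 200 g ae/ha and scored resistant/sensitive, segregation tested by Chi square against 3:1.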

[3] = Table 8, T1 Arabidopsis, 105 g ae/ha glyphosate
[4] = Table 8, T1 Arabidopsis, 420 g ae/ha glyphosate
[5] = Table 8, T1 Arabidopsis, 1680 g ae/ha glyphosate
[6] = Table 8, T1 Arabidopsis, 3360 g ae/ha glyphosate
[7] = Table 10, T1 Arabidopsis, 1,680 g ae/ha glyphosate
[8] = Table 12, T2 Arabidopsis, 1 copy, 420 g ae/ha glyphosate
[9] = Table 12, T2 Arabidopsis, 1 copy, 840 g ae/ha glyphosate
[10] = Table 12, T2 Arabidopsis, 1 copy, 1680 g ae/ha glyphosate
[11] = Table 12, T2 Arabidopsis, 1 copy, 3360 g ae/ha glyphosate

B1: pDAB105533: TraP12 v2 -- dgt-28 v5: binary construct TraP12 v2: dgt-28 v5 (SEQ ID NO:36) (nucleic acid)
DNA: ATGGCACAATCTAGCAGAATCTGCCACGGTGTGCAGAACCCATGTGTGATCATTTCAAATCTCTCAAAGTCCAATCAGAACAAATCACCTTTCTCCGTCTCCCTCAAGACACACCAGCATCCAAGGGCATACCCGATAAGCAGCTCATGGGGACTCAAGAAGAGCGGAATGACTCTGATTGGCTCTGAGCTTCGTCCTCTTAAGGTTATGTCCTCTGTTTCCGCAGCAAGAGGGATGCCAGCCTTGTCTTTACCTGGATCAAAGAGTATCACAGCTAGGGCACTCTTTCTTGCTGCTGCTGCTGATGGGGTTACTACTTTGGTGAGGCCATTGAGAAGTGACGACACAGAAGGATTCGCTGAGGGGTTAGTTCGTTTAGGCTATCGTGTAGGGAGGACACCCGATACTTGGCAAGTCGATGGCAGACCACAAGGACCAGCAGTGGCTGAGGCTGACGTCTACTGTAGAGACGGAGCAACCACCGCTAGATTCTTGCCAACCTTAGCAGCTGCTGGTCACGGAACATACAGATTTGATGCTTCACCACAGATGAGGAGACGTCCTCTTTTGCCCTTAAGCAGAGCCTTGAGGGATTTGGGTGTCGATCTTAGACACGAAGAAGCTGAAGGTCATCACCCTCTGACTGTCCGTGCTGCTGGGGTTGAAGGAGGAGAGGTTACTTTGGATGCTGGTCAGTCAAGTCAGTATCTCACTGCCTTGTTGCTCCTTGGTCCCCTTACAAGACAAGGACTGAGGATAAGGGTTACTGATTTGGTGTCAGCACCATACGTGGAGATTACGCTTGCAATGATGAGGGCTTTCGGAGTTGAAGTGGCAAGGGAGGGAGATGTGTTCGTTGTTCCACCTGGTGGATATCGTGCAACTACGTATGCTATAGAACCCGACGCAAGTACTGCTTCTTACTTCTTCGCAGCTGCTGCTTTGACTCCTGGAGCTGAAGTGACTGTACCTGGGTTAGGCACGGGAGCACTTCAAGGAGATTTGGGATTTGTAGATGTCTTAAGGAGAATGGGAGCCGAGGTGTCCGTAGGAGCTGATGCAACCACTGTTAGAGGAACTGGTGAATTGCGTGGCCTTACAGCCAACATGAGAGACATAAGTGATACGATGCCGACCCTCGCTGCAATAGCACCCTTTGCTAGTGCTCCAGTTAGAATCGAGGATGTTGCCAACACTCGTGTCAAAGAATGTGACAGACTTGAGGCTTGTGCAGAGAACCTTAGGAGGTTGGGAGTAAGGGTTGCAACGGGTCCGGACTGGATTGAGATACACCCTGGTCCAGCTACTGGTGCTCAAGTCACAAGCTATGGTGATCACAGAATTGTGATGTCATTTGCAGTGACTGGACTTCGTGTGCCTGGGATCAGCTTCGACGACCCTGGCTGTGTTCGTAAGACTTTTCCTGGGTTTCACGAGGCTTTCGCAGAATTGAGGCGTGGCATTGGGAGCTGA
modifications: In-frame fusion of dgt-28 v5 and TraP12 v2
- % Injury Ave (Arabidopsis [1]; [3]): 10.0%
- % Injury Range (%) (Arabidopsis [1]; [3]): 0-25%
- No. plants with 20-40% injury (Arabidopsis [1]; [3]): 1
- No. plants with <20% injury (Arabidopsis [1]; [3]): 4
- No. plants with >40% injury (Arabidopsis [1]; [3]): 0
- % Injury Ave (Arabidopsis [1]; [4]): 53.6%
- % Injury Range (%) (Arabidopsis [1]; [4]): 8-85%
- No. plants with 20-40% injury (Arabidopsis [1]; [4]): 1
- No. plants with <20% injury (Arabidopsis [1]; [4]): 1
- No. plants with >40% injury (Arabidopsis [1]; [4]): 3
- % Injury Ave (Arabidopsis [1]; [5]): 11.0%
- % Injury Range (%) (Arabidopsis [1]; [5]): 0-20%
- No. plants with 20-40% injury (Arabidopsis [1]; [5]): 1
- No. plants with <20% injury (Arabidopsis [1]; [5]): 4
- No. plants with >40% injury (Arabidopsis [1]; [5]): 0
- % Injury Ave (Arabidopsis [1]; [6]): 55.0%
- % Injury Range (%) (Arabidopsis [1]; [6]): 25-80%
- No. plants with 20-40% injury (Arabidopsis [1]; [6]): 2
- No. plants with <20% injury (Arabidopsis [1]; [6]): 0
- No. plants with >40% injury (Arabidopsis [1]; [6]): 3
- % Injury Ave (Arabidopsis [1]; [7]): 11.0%
- % Injury Range (%) (Arabidopsis [1]; [7]): 0-20%
- No. plants with 20-40% injury (Arabidopsis [1]; [7]): 1
- No. plants with <20% injury (Arabidopsis [1]; [7]): 4
- No. plants with >40% injury (Arabidopsis [1]; [7]): 0
- % Injury Ave (Arabidopsis [1]; [8]): 0.0%
- % Injury Range (%) (Arabidopsis [1]; [8]): 0%
- No. plants with 20-40% injury (Arabidopsis [1]; [8]): 0
- No. plants with <20% injury (Arabidopsis [1]; [8]): 4
- No. plants with >40% injury (Arabidopsis [1]; [8]): 0
- % Injury Ave (Arabidopsis [1]; [9]): 0.0%
- % Injury Range (%) (Arabidopsis [1]; [9]): 0%
- No. plants with 20-40% injury (Arabidopsis [1]; [9]): 0
- No. plants with <20% injury (Arabidopsis [1]; [9]): 4
- No. plants with >40% injury (Arabidopsis [1]; [9]): 0
- % Injury Ave (Arabidopsis [1]; [10]): 0.0%
- % Injury Range (%) (Arabidopsis [1]; [10]): 0%
- No. plants with 20-40% injury (Arabidopsis [1]; [10]): 0
- No. plants with <20% injury (Arabidopsis [1]; [10]): 4
- No. plants with >40% injury (Arabidopsis [1]; [10]): 0
- % Injury Ave (Arabidopsis [1]; [11]): 13.3%
- % Injury Range (%) (Arabidopsis [1]; [11]): 8-25%
- No. plants with 20-40% injury (Arabidopsis [1]; [11]): 1
- No. plants with <20% injury (Arabidopsis [1]; [11]): 3
- No. plants with >40% injury (Arabidopsis [1]; [11]): 0
- T1 Families Tested Segregating at 1 Locus (%) (Arabidopsis [2]): 50%
